In publication PMC11229311, “Structural and functional investigation of the DHH/DHHA1 family proteins in Deinococcus radiodurans” (Nucleic Acids Research, 2024):

Molecular target: the molecule itself
Test: SEC; analytical gel filtration, Superdex 75 10/300 GL, 20 mM Tris pH 8.0, 100 mM NaCl, 1 mM TCEP; 300 ul of 1 mM protein loaded; calibrated with protein standards (6.5-75 kDa)

B1: Deinococcus radiodurans RecJ-like (DrRecJ-like), wild type (enzyme, UniProt Q9RW43 1-338, looked up)
chain: MTAENSATPDYRRNVGAVADALLAHPGPIVVLSHENPDGDALGSVLGLSRALRTLGKTVLAPMTVPHYLSFLPQPGELTAPLESWPQGALAAVLDVDNNDPVRVAGADLTQFDGPVVNVDHHGTNLRRADAGVVDPSKPAAAMMVADVIDALGAPWSEAVATPLMLGLNTDTGNFAFDSVSAETFECAARLRAHGARIGWLNDQMRQNPQSYYLLLREVLGKLEFLHGGRVVQTRVDEEMLARAGATWEQVENYVSMLRNAEGAQLAVMAKDYGDRVKFSLRSRGPVSAQNIAVALGGGGHVPAAGATVISSYAEARARLDAAIEAELARVDAQATAE
notes: RecJ-like protein (DR_0826) of Deinococcus radiodurans, full-length gene, residues 1-338, amplified from genomic DNA; DHH and DHHA1 domains; Tag-free after TEV cleavage of the His-MBP-TEV fusion (vector pET28-HMT); also called DrRecJ-like^wt; DrNrnA; source: E. coli Rossetta (DE3), purified (His-tag column, HiTrap Q, TEV tag removal, Superdex 75); not shown: His6, N-terminal, cleaved; MBP, …
  stoichiometry N: 2
